US20230365714A1

Assays:
[1] = target: ROR122 shuffle variant (Ig-like domain of ROR1, CRD and kringle domain of ROR2) (human (ROR1/ROR2 chimera)) (UniProt Q01973); assay: cell imaging (CellInsight) on CHO cells expressing the shuffle construct
[2] = target: ROR112 shuffle variant (Ig-like domain and CRD of ROR1, kringle domain of ROR2) (human (ROR1/ROR2 chimera)) (UniProt Q01973); assay: as above
ROR112 shuffle variant (Ig-like domain and CRD of ROR1, kringle domain of ROR2) (human (ROR1/ROR2 chimera)), sequence (Q01973 other isoform, or with tags, fused parts or gaps mutant limits assumed): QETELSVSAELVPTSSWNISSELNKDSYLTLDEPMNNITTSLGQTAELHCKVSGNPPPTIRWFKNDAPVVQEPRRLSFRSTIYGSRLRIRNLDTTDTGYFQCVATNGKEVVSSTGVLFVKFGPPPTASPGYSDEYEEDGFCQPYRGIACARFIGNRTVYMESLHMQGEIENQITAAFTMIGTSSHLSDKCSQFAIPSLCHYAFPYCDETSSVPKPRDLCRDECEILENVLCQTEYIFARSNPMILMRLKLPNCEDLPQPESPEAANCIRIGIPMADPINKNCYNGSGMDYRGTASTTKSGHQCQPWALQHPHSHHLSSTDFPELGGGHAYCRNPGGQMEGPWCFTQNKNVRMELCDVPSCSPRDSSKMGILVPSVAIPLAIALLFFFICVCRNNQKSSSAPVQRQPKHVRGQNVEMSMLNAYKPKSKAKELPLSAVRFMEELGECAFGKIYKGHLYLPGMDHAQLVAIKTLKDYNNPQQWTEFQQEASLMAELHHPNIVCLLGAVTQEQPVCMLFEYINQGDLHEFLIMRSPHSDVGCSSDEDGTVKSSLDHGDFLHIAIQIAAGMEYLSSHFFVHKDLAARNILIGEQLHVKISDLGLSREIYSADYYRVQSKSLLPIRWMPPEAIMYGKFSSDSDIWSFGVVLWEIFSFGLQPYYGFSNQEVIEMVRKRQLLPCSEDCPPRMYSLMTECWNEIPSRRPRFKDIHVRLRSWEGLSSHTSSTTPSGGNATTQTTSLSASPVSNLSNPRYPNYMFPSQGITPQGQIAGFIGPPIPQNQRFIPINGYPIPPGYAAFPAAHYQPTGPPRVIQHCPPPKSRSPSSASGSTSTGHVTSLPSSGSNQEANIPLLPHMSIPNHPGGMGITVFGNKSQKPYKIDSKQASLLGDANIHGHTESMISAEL

ROR122 shuffle variant (Ig-like domain of ROR1, CRD and kringle domain of ROR2) (human (ROR1/ROR2 chimera)), sequence (Q01973 other isoform, or with tags, fused parts or gaps mutant limits assumed): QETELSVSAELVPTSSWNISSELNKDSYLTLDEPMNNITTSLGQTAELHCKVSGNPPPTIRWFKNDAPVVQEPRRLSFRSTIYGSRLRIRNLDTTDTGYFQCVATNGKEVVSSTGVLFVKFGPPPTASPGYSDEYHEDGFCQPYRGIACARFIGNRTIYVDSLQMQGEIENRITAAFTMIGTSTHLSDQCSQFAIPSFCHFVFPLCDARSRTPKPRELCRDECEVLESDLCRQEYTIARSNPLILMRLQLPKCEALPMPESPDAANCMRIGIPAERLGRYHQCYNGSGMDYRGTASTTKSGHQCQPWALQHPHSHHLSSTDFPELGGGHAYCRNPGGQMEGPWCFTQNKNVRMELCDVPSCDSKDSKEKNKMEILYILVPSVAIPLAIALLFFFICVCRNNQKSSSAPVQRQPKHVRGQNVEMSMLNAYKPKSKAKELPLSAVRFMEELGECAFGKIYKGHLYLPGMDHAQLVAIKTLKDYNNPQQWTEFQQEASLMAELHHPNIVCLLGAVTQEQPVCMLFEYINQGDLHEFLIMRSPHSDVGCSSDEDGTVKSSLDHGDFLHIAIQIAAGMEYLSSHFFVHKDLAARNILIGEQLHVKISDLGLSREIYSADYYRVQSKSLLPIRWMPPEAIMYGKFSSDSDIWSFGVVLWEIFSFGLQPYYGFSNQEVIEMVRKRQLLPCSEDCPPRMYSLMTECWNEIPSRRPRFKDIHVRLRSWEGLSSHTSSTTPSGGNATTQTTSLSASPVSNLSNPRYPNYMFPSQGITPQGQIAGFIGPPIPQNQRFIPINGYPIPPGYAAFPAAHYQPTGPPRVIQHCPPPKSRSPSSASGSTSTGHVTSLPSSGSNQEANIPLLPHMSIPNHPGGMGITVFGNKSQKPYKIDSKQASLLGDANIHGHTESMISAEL

- RFU (total spot intensity) [1]: > 12000 RFU
- RFU (total spot intensity) [2]: > 12000 RFU
B1: chIgG1-ROR2-A (antibody, V domains shown)
VH: QSVEESGGRLVTPGTPLTLTCTVSGFSLSSYSMSWVRQAPGKGLEWIGVIYVNSKTWYANWAKGRFTISKTSTTVDLKITSPTTEDTATYFCARGDAGYTTNSWLWGPGTLVTVSS
VL: AFELTQTPASVSEPVGGTVTIKCQASESIDNYCSWYQQKPGQPPKLLIYQAFKLASGVPSRFRGSGSGTQFTLTISDLESDDAATYYCQSYSGISTTAFGGGTEVVVK
